The values below come from patent US20210277441A1, “METHOD OF SELECTING A POLYPEPTIDE OF INTEREST” (IMPERIAL COLLEGE INNOVATIONS LIMITED, priority 2018, published 2021).

Where a chain is given by its changes, count along the chain named. Numbers in names are those of the source.

Substrate in data set [1]: CC1=NCCC1
As to the kind of experiment: Kinetics of parental MsIRED, 2-methylpyrroline reduction with NADPH. Format: biochemical, Myxococcus stipitatus. The conditions noted are these: other: cofactor NADPH (0.25 mM); enzyme 1.2 uM.

Substrate in data set [2]: CC1=NCCC1
Description: Kinetics of evolved MsIRED-s, 2-methylpyrroline reduction with NADH. It counts as biochemical, Myxococcus stipitatus. The conditions noted are these: other: cofactor NADH (0.25 mM); enzyme 1.25 uM.

Substrate in data set [3]: CC(C)O
As to the kind of experiment: purified protein, by the assay type. It counts as biochemical, Clostridium beijerinckii. The conditions noted are these: other: cofactor NADP+ (1 mM); enzyme 110 nM.

B1: Myxococcus stipitatus imine reductase (MsIRED), wild type, SEQ ID NO: 34 (Myxococcus stipitatus DSM 14675) (protein)
chain: MKPTLTVIGAGRMGSALIKAFLQSGYTTTVWNRTKAKSEPLAKLGAHLADTVRDAVKRSDIIVVNVLDYDTSDQLLRQDEVTRELRGKLLVQLTSGSPALAREQETWARQHGIDYLDGAIMATPDFIGQAECALLYSGSAALFEKHRAVLNVLGGATSHVGEDVGHASALDSALLFQMWGTLFGTLQALAISRAEGIPLEKTTAFIKLTEPVTQGAVADVLTRVQQNRLTADAQTLASLEAHNVAFQHLLALCEERNIHRGVADAMYSVIREAVKAGHGKDDFAILTRFLK
On to B1, for which, in data set [1], the Km was determined as 3.56 mM mM and the kcat was found to be 89.8 min-1 min-1.

B2: Myxococcus stipitatus imine reductase (MsIRED) variant MsIRED-s (pLS133_1), N32E/R33V/T34R/K37R, SEQ ID NO: 35 (Myxococcus stipitatus DSM 14675; … (protein)
chain: B1 chain with N32E, R33V, T34R, K37R
Turning to B2, in data set [2], the Km stood at 19.57 mM mM and the kcat was 78.1 min-1 min-1.

B3: Clostridium beijerinckii alcohol dehydrogenase (CBADH), wild type, SEQ ID NO: 1 (Clostridium beijerinckii) (protein)
chain: MKGFAMLGINKLGWIEKERPVAGSYDAIVRPLAVSPCTSDIHTVFEGALGDRKNMILGHEAVGEVVEVGSEVKDFKPGDRVIVPCTTPDWRSLEVQAGFQQHSNGMLAGWKFSNFKDGVFGEYFHVNDADMNLAILPKDMPLENAVMITDMMTTGFHGAELADIQMGSSVVVIGIGAVGLMGIAGAKLRGAGRIIGVGSRPICVEAAKFYGATDILNYKNGHIVDQVMKLTNGKGVDRVIMAGGGSETLSQAVSMVKPGGIISNINYHGSGDALLIPRVEWGCGMAHKTIKGGLCPGGRLRAEMLRDMVVYNRVDLSKLVTHVYHGFDHIEEALLLMKDKPKDLIKAVVIL
For the protein B3, in data set [3], the Km turned out to be 5.80 mM mM and the kcat was determined as 1185.6 min-1 min-1.
